Our source for the EC50 values is US20220267475A1 (published 2022).

By EC50 is commonly meant the midpoint of the concentration-response curve. Lower therefore signals higher potency in that assay.

In experiment [1] the target is T1, TIGIT antigen expressed on CHO-K1 cells (UniProt Q495A1 22-244).
T1 chain: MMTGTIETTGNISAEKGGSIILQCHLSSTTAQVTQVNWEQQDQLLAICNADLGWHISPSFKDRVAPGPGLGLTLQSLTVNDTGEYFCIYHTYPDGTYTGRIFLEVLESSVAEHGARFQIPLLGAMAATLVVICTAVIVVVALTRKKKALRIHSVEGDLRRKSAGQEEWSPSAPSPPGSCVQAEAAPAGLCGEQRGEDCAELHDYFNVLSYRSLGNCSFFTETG
The experiment in a line: flow cytometry. A general note: Flow cytometry measures light scatter and fluorescence of single cells or particles in a stream.

Experiment [2] addresses CD47 antigen expressed on CHO-K1 cells (UniProt Q08722 19-323). The experiment in a line: flow.

Sequence of CD47 antigen expressed on CHO-K1 cells (Q08722 19-323): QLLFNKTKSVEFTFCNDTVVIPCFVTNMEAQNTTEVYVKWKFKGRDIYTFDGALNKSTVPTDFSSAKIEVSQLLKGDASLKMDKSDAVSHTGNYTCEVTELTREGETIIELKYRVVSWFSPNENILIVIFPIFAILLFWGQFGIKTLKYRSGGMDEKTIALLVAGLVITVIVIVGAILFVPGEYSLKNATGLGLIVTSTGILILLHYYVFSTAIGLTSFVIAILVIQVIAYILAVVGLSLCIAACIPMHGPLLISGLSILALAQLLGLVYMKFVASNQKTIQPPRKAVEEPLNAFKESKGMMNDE

B1: TIGIT-E-LC (bispecific antibody)
heavy: not shown
light: EIVLTQSPATLSLSPGERATLSCRASENVGTYISWYQQKPGQAPRLLIYGASNRYTGIPARFSGSGSGTDFTLTISSLEPEDFAVYYCGESYGHLYTFGGGTKVEIKRTVAAPSVFIFPPSDEQLKSGTASVVCLLNNFYPREAKVQWKVDNALQSGNSQESVTEQDSKDSTYSLSSTLTLSKADYEKHKVYACEVTHQGLSSPVTKSFNRGECEPKSSDKTHTSPPSPEVQLVESGGGLVQPGGSLRLSCAASGYKYGVYSMGWFRQAPGKGLEGVSAICSGGRTTYSDSVKGRFTISRDNSNQILYLQMNSLRAEDTAVYYCAARPLWTGDCDLSSSWYKTWGQGTLVTVSS
The molecule B1 gave an EC50 in experiment [1] of 334 pM.

B2: TIGIT-G9-LC (bispecific antibody)
heavy: not shown
light: EIVLTQSPATLSLSPGERATLSCRASENVGTYISWYQQKPGQAPRLLIYGASNRYTGIPARFSGSGSGTDFTLTISSLEPEDFAVYYCGESYGHLYTFGGGTKVEIKRTVAAPSVFIFPPSDEQLKSGTASVVCLLNNFYPREAKVQWKVDNALQSGNSQESVTEQDSKDSTYSLSSTLTLSKADYEKHKVYACEVTHQGLSSPVTKSFNRGECGGGGSGGGSEVQLVESGGGLVQPGGSLRLSCAASGYKYGVYSMGWFRQAPGKGLEGVSAICSGGRTTYSDSVKGRFTISRDNSNQILYLQMNSLRAEDTAVYYCAARPLWTGDCDLSSSWYKTWGQGTLVTVSS
B2 gave an EC50 in experiment [1] of 658 pM.

B3: TIGIT-E-LN (bispecific antibody)
heavy: not shown
light: EVQLVESGGGLVQPGGSLRLSCAASGYKYGVYSMGWFRQAPGKGLEGVSAICSGGRTTYSDSVKGRFTISRDNSNQILYLQMNSLRAEDTAVYYCAARPLWTGDCDLSSSWYKTWGQGTLVTVSSEPKSSDKTHTSPPSPEIVLTQSPATLSLSPGERATLSCRASENVGTYISWYQQKPGQAPRLLIYGASNRYTGIPARFSGSGSGTDFTLTISSLEPEDFAVYYCGESYGHLYTFGGGTKVEIKRTVAAPSVFIFPPSDEQLKSGTASVVCLLNNFYPREAKVQWKVDNALQSGNSQESVTEQDSKDSTYSLSSTLTLSKADYEKHKVYACEVTHQGLSSPVTKSFNRGEC
Consider B3, for which a half-maximal effect in experiment [1] (EC50) was put at 75.7 pM.

B4: TIGIT-G9-LN (bispecific antibody)
heavy: not shown
light: EVQLVESGGGLVQPGGSLRLSCAASGYKYGVYSMGWFRQAPGKGLEGVSAICSGGRTTYSDSVKGRFTISRDNSNQILYLQMNSLRAEDTAVYYCAARPLWTGDCDLSSSWYKTWGQGTLVTVSSGGGGSGGGSEIVLTQSPATLSLSPGERATLSCRASENVGTYISWYQQKPGQAPRLLIYGASNRYTGIPARFSGSGSGTDFTLTISSLEPEDFAVYYCGESYGHLYTFGGGTKVEIKRTVAAPSVFIFPPSDEQLKSGTASVVCLLNNFYPREAKVQWKVDNALQSGNSQESVTEQDSKDSTYSLSSTLTLSKADYEKHKVYACEVTHQGLSSPVTKSFNRGEC
In the case of B4, the EC50 in experiment [1] is 155 pM.

B5: TIGIT-G9-HN (bispecific antibody)
heavy: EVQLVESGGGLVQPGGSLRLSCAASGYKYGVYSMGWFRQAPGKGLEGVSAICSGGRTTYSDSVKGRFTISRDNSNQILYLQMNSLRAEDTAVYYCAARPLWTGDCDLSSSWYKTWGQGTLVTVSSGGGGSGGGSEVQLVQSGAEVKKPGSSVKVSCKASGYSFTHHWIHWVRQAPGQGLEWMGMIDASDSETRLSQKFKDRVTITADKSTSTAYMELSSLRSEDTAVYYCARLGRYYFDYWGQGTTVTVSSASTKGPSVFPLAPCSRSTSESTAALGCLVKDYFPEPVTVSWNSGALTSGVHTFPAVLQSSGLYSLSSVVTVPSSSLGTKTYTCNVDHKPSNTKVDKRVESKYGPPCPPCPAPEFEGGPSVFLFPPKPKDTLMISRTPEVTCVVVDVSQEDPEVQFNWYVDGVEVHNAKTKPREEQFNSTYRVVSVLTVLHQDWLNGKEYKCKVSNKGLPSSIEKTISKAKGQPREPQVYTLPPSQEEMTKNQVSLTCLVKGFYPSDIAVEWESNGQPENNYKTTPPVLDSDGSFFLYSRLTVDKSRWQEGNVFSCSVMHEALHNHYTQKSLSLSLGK
light: EIVLTQSPATLSLSPGERATLSCRASENVGTYISWYQQKPGQAPRLLIYGASNRYTGIPARFSGSGSGTDFTLTISSLEPEDFAVYYCGESYGHLYTFGGGTKVEIKRTVAAPSVFIFPPSDEQLKSGTASVVCLLNNFYPREAKVQWKVDNALQSGNSQESVTEQDSKDSTYSLSSTLTLSKADYEKHKVYACEVTHQGLSSPVTKSFNRGEC
Consider B5, for which the EC50 is 168 pM in experiment [1] and 852 pM in experiment [2].

B6: TIGIT-E-HN (bispecific antibody)
heavy: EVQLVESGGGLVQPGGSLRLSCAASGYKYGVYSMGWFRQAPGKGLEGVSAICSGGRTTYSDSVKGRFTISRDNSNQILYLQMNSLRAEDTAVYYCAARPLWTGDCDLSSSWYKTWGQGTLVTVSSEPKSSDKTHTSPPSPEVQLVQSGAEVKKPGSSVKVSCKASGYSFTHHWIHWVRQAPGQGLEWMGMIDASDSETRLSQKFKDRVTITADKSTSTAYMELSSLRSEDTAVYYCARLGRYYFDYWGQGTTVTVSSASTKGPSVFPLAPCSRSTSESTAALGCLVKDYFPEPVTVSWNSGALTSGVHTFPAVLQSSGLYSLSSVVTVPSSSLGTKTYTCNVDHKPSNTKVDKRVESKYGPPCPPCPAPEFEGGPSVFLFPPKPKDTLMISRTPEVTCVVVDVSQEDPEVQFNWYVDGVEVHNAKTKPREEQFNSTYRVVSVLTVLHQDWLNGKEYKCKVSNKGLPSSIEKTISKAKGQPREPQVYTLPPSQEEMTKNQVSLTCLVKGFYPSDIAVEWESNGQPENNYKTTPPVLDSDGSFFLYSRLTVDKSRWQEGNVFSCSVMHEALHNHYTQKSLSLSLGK
light: EIVLTQSPATLSLSPGERATLSCRASENVGTYISWYQQKPGQAPRLLIYGASNRYTGIPARFSGSGSGTDFTLTISSLEPEDFAVYYCGESYGHLYTFGGGTKVEIKRTVAAPSVFIFPPSDEQLKSGTASVVCLLNNFYPREAKVQWKVDNALQSGNSQESVTEQDSKDSTYSLSSTLTLSKADYEKHKVYACEVTHQGLSSPVTKSFNRGEC
On to B6, for which the EC50 was found to be 132 pM in experiment [1] and 650 pM in experiment [2].

B7: TIGIT-E-HC (bispecific antibody)
heavy: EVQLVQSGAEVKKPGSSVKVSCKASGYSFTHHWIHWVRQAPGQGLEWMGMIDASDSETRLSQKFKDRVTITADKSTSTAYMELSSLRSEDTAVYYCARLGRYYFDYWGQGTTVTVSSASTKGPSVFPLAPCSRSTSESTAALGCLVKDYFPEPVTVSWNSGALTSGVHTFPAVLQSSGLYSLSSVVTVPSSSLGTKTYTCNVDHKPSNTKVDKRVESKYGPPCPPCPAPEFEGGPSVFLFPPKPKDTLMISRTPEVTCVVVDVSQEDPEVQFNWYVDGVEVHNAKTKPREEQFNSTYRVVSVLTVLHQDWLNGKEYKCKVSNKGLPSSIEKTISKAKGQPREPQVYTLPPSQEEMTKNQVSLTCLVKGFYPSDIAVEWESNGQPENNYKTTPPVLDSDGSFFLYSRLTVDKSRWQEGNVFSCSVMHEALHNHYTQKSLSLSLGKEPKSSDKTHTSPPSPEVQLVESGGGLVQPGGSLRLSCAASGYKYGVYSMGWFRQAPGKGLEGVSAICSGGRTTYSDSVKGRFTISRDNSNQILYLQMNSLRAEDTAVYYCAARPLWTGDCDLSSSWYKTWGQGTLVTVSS
light: EIVLTQSPATLSLSPGERATLSCRASENVGTYISWYQQKPGQAPRLLIYGASNRYTGIPARFSGSGSGTDFTLTISSLEPEDFAVYYCGESYGHLYTFGGGTKVEIKRTVAAPSVFIFPPSDEQLKSGTASVVCLLNNFYPREAKVQWKVDNALQSGNSQESVTEQDSKDSTYSLSSTLTLSKADYEKHKVYACEVTHQGLSSPVTKSFNRGEC
The molecule B7 gave an EC50 in experiment [1] of 520 pM.

B8: TIGIT-G9-HC (bispecific antibody)
heavy: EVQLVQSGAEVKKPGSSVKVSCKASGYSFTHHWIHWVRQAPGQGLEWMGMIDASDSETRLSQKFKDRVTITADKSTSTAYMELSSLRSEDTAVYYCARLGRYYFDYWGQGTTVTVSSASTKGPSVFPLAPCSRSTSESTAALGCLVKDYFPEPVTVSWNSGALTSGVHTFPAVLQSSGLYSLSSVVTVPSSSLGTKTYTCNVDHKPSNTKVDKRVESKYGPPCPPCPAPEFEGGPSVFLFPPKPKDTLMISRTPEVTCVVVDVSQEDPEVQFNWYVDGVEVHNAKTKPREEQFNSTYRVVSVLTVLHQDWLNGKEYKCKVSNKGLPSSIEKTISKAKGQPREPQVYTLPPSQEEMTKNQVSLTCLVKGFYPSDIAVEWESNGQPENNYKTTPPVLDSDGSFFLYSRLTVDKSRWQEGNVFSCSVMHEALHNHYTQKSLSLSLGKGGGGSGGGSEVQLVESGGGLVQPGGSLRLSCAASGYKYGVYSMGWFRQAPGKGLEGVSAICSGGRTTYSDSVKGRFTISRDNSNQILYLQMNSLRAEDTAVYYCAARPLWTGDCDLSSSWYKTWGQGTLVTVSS
light: EIVLTQSPATLSLSPGERATLSCRASENVGTYISWYQQKPGQAPRLLIYGASNRYTGIPARFSGSGSGTDFTLTISSLEPEDFAVYYCGESYGHLYTFGGGTKVEIKRTVAAPSVFIFPPSDEQLKSGTASVVCLLNNFYPREAKVQWKVDNALQSGNSQESVTEQDSKDSTYSLSSTLTLSKADYEKHKVYACEVTHQGLSSPVTKSFNRGEC
Turning to B8, the EC50 in experiment [1] was 429 pM; in experiment [2], 686 pM.

B9: anti-CD47 monoclonal antibody (antibody, V domains shown)
VH: EVQLVQSGAEVKKPGSSVKVSCKASGYSFTHHWIHWVRQAPGQGLEWMGMIDASDSETRLSQKFKDRVTITADKSTSTAYMELSSLRSEDTAVYYCARLGRYYFDYWGQGTTVTVSS
VL: EIVLTQSPATLSLSPGERATLSCRASENVGTYISWYQQKPGQAPRLLIYGASNRYTGIPARFSGSGSGTDFTLTISSLEPEDFAVYYCGESYGHLYTFGGGTKVEIKR
For B9, the figures for the EC50 in experiment [1] and in experiment [2] were about 443 pM and 8.43 pM, respectively.
